Source: patent US20220233552A1 (CONSEJO SUPERIOR DE INVESTIGACIONES CIENT FICAS CSIC, published 2022)

T1: protein tyrosine phosphatase-1B (PTP1B) (human, UniProt P18031 1-435)
T1 construct: Endogenous PTP1B of the cell lines, detected by co-immunoprecipitation, Western blot and mass spectrometry; also called PTPB1
T1 sequence (looked up): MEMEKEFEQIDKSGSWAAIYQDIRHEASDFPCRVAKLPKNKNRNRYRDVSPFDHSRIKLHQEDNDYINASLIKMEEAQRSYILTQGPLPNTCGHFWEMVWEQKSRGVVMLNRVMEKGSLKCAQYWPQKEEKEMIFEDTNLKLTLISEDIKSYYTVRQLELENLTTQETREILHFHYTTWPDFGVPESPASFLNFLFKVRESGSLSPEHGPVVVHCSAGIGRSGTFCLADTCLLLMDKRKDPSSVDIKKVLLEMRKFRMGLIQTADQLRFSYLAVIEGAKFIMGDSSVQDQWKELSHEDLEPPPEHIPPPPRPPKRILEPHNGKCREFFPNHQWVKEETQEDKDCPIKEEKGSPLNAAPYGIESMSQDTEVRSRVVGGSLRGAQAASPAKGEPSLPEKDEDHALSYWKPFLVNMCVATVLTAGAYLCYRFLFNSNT


Assays:
[1] = molecular target: T1, protein tyrosine phosphatase-1B (PTP1B); experiment: IL13Rα2 immunoprecipitation with mass spectrometry (U251 lysates) and reciprocal co-IP/Western blot in CRC, GBM and OC cell lines
Source text: (§1) FIG. 1. […] Protein position was tentatively assigned based on existing literature.
To characterize the protein interaction network of IL13Rα2, whole-cell lysates of the human GBM cell line U251 were immunoprecipitated and analyzed by mass spectrometry.

[2] = molecular target: T1, protein tyrosine phosphatase-1B (PTP1B); experiment: co-immunoprecipitation (IL13Rα2 IP, PTP1B Western blot) in RKO transfectants
Source text: as §1

Row | binding result [1] | binding result [2] | Binder
1 | binds |  | IL13Rα2 (wild type) (receptor, human, UniProt Q14627 27-380, looked up, whole, on cells; Used as endogenous protein in lysates of human CRC, GBM and OC cell lines and as transfected wild type in RKO cells; also called IL13Rα2 WT; wild-type IL13Rα2) DTEIKVNPPQDFEIVDPGYLGYLYLQWQPPLSLDHFKECTVEYELKYRNIGSETWKTIITKNLHYKDGFDLNKGIEAKIHTLLPWQCTNGSEVQSSWAETTYWISPQGIPETKVQDMDCVYYNWQYLLCSWKPGIGVLLDTNYNLFYWYEGLDHALQCVDYIKADGQNIGCRFPYLEASDYKDFYICVNGSSENKPIRSSYFTFQLQNIVKPLPPVYLTFTRESSCEIKLKWSIPLGPIPARCFDYEIEIREDDTTLVTATVENETYTLKTTNETRQLCFVVRSKVNIYCSDDGIWSEWSDKQCWEGEDLSKKTLLRFWLPFGFILILVIFVTGLLLRKPNTYPKMIPEFFCDT
2 |  | no binding | IL13Rα2 Tyr369Phe mutant (receptor, human, UniProt Q14627 27-380, looked up, whole, on cells; immunoprecipitated from lysates; also called Y369F mutated form; mutant Tyr369Phe) DTEIKVNPPQDFEIVDPGYLGYLYLQWQPPLSLDHFKECTVEYELKYRNIGSETWKTIITKNLHYKDGFDLNKGIEAKIHTLLPWQCTNGSEVQSSWAETTYWISPQGIPETKVQDMDCVYYNWQYLLCSWKPGIGVLLDTNYNLFYWYEGLDHALQCVDYIKADGQNIGCRFPYLEASDYKDFYICVNGSSENKPIRSSYFTFQLQNIVKPLPPVYLTFTRESSCEIKLKWSIPLGPIPARCFDYEIEIREDDTTLVTATVENETYTLKTTNETRQLCFVVRSKVNIYCSDDGIWSEWSDKQCWEGEDLSKKTLLRFWLPFGFILILVIFVTGLLLRKPNTFPKMIPEFFCDT
